Experimental data published in article PMC10400037, “Novel players in organogenesis and flavonoid biosynthesis in cucumber glandular trichomes”.

T1: MBP-CsTBH (TINY BRANCHED HAIR, HD-ZIP) (Cucumis sativus, UniProt A0A0A0LED8 1-240)
T1 sequence: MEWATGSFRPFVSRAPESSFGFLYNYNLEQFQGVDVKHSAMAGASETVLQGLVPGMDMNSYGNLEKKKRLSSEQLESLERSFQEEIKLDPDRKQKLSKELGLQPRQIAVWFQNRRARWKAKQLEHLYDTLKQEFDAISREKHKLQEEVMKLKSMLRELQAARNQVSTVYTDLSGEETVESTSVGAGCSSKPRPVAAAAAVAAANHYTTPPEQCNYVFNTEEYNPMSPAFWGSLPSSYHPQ

B1: Cs4CL promoter probe (dsDNA)
DNA 1: CTTCCAAATTAATTATTGTTTTATGCAAA
DNA 2: TTTGCATAAAACAATAATTAATTTGGAAG
B2: CsF3H promoter probe (dsDNA)
DNA 1: GATTTGAGAAAATTATTGGGCTGGATTGT
DNA 2: ACAATCCAGCCCAATAATTTTCTCAAATC
B3: CsFLS promoter probe (dsDNA)
DNA 1: AATTTAAAATAATTATTGGGATTTCAAAC
DNA 2: GTTTGAAATCCCAATAATTATTTTAAATT

target: T1, MBP-CsTBH (TINY BRANCHED HAIR, HD-ZIP); experiment: EMSA; EMSA kit (Beyotime GS009) reaction buffer, room temperature, 6% native PAGE; salt and pH not stated; conditions: protein: recombinant; chain copies: 2; blunt

Binding result, binds:
B1
B2
B3
